Positions count from the first letter of the chain named. Numbers in names are those of the source. Read-outs that look alike come from different tables or passages of the source.
B1: 2G12 (antibody, V domains shown)
VH: QIQLVQSGPELKKPGETVKISCKASGYSFTHHGMNWVKQAPGKDLKWMGWINTYTGEPTYADDFRGRFAFSLETSASTAYLQINNLKSEDTATYFCARKDYYISGNFDYWGQGTTLTVSS
VL: DIQMTQSPSSLSASLGERVSLTCRASQDIGSNLNWLQQEPDGTIKRLIYATSSLDSGVPKRFSGSRSGSDYSLTISSLESEDFVDYYCLQYASSPYTFGGGTKLEIK
B2: 5D5.G4 (antibody, V domains shown)
VH: B1 VH with S28T, F29L, H31N, H32Y, K43T, R65K, S88N, I103V
VL: B1 VL
B3: h4D10.G4.H4(N56Q Y100V)L2 (antibody, V domains shown)
VH: QVQLVQSGAEVKKPGASVKVSCKASGYTFSSYVIHWVRQAPGQGLEWMGYFNPYNQGTNYNENFKGRVTMTADTSTSTVYMELSSLRSEDTAVYYCARYVYASGSLYFDYWGQGTTVTVSS
VL: DIQMTQSPSTLSASVGDRVTITCSASSSVSYMHWYQQKPGKAPKPLIYEISKLASGVPSRFSGSGSGTEFTLTISSLQPDDAATYYCQQWNYPLITFGGGTKVEIK
B4: h4D10.G4.H4L1 (antibody, V domains shown)
VH: B3 VH with Q56N, V100Y
VL: B3 VL with M4L, T10F, D80E
B5: h4D10.G4.H4(N56W Y100W)L2 (antibody, V domains shown)
VH: B3 VH with Q56W, V100W
VL: B3 VL
B6: h4D10.G4.H3L1 (antibody, V domains shown)
VH: B3 VH with Q56N, T76I, V79A, S85R, E89D, V100Y, T116L
VL: B3 VL with M4L, T10F, D80E
B7: h4D10.G4.H4(N56V Y100V)L2 (antibody, V domains shown)
VH: B3 VH with Q56V
VL: B3 VL
B8: h4D10.G4.H0bL2 (antibody, V domains shown)
VH: B3 VH with Q56N, A72R, V100Y
VL: B3 VL
B9: h4D10.G4.H4(N56V Y100F)L2 (antibody, V domains shown)
VH: B3 VH with Q56V, V100F
VL: B3 VL
B10: h4D10.G4.H4(N56I Y100W)L2 (antibody, V domains shown)
VH: B3 VH with Q56I, V100W
VL: B3 VL
B11: h4D10.G4.H3L2 (antibody, V domains shown)
VH: B3 VH with Q56N, T76I, V79A, S85R, E89D, V100Y, T116L
VL: B3 VL
B12: h4D10.G4.H4(N56Q Y100W)L2 (antibody, V domains shown)
VH: B3 VH with V100W
VL: B3 VL
B13: h4D10.G4.H4(N56I Y100V)L2 (antibody, V domains shown)
VH: B3 VH with Q56I
VL: B3 VL
B14: h4D10.G4.H4(N56W Y100F)L2 (antibody, V domains shown)
VH: B3 VH with Q56W, V100F
VL: B3 VL
B15: h4D10.G4.H0bL1 (antibody, V domains shown)
VH: B3 VH with Q56N, A72R, V100Y
VL: B3 VL with M4L, T10F, D80E
B16: h4D10.G4.H4(N56W Y100V)L2 (antibody, V domains shown)
VH: B3 VH with Q56W
VL: B3 VL
B17: h4D10.G4.H4(N56I Y100F)L2 (antibody, V domains shown)
VH: B3 VH with Q56I, V100F
VL: B3 VL
B18: h4D10.G4.H4(N56V Y100W)L2 (antibody, V domains shown)
VH: B3 VH with Q56V, V100W
VL: B3 VL
B19: h2C10.G4.H0aL0a (antibody, V domains shown)
VH: QVQLVQSGAEVKKPGASVKVSCKASGFAFTNYLIEWVRQAPGQGLEWMGVLNPGSGATNYNEKFKGRVTMTRDTSISTAYMELSRLRSDDTAVYYCARGIYGGYFAMDYWGQGTLVTVSS
VL: DIQMTQSPSSLSASVGDRVTITCRASQDITTYLNWYQQKPGKAPKLLIYYTSRLHSGVPSRFSGSGSGTDFTFTISSLQPEDIATYYCQQGNTLPRTFGQGTKVEIK
B20: h2C10.G4.H0aL1 (antibody, V domains shown)
VH: B19 VH
VL: B19 VL with F73L
B21: h2C10.G4.H0aL3 (antibody, V domains shown)
VH: B19 VH
VL: B19 VL with K42G, F71Y, F73L, Q100G, V104L
B22: h2C10.G4.H3L1 (antibody, V domains shown)
VH: B19 VH with R72A
VL: B19 VL with F73L
B23: h2C10.G4.H3L2 (antibody, V domains shown)
VH: B19 VH with R72A
VL: B19 VL with P8T, K42G, F71Y, F73L, Q100G, V104L
B24: h2C10.G4.H0aL0b (antibody, V domains shown)
VH: B19 VH
VL: B19 VL with F73L, I83F
B25: h2C10.G4.H3L4 (antibody, V domains shown)
VH: B19 VH with R72A
VL: B19 VL with K42G, F73L, Q100G, V104L
B26: h2C10.G4.H3L3 (antibody, V domains shown)
VH: B19 VH with R72A
VL: B19 VL with K42G, F71Y, F73L, Q100G, V104L
B27: P23B6 (antibody, V domains shown)
VH: QVQLLQPGAEPVKPGTSVKLSCKASGYNFTSYWLNWVKLRPGQGLEWIGDIHPGRGSINYNEKFKSKAILTVDTSSRTAYIQLSSLASEDSALYYCARADGSWFVYWGQGTLVTVSA
VL: DIVLTQSPASLAVSLGQRATISCRASQSVSTSSYSYMHWYQQKPGQPPKLLIKYASNLESGVPARFSGSGSGTDFTLNIHPVEEEDTATYYCQHSWEIPWTFGGGTKLEIK
B28: 4H11 (antibody, V domains shown)
VH: QIQLVQSGPELKKPGETVKISCKASGYTLTDYGMNWVSQAPGKGLKWVGWINTYTGEPTYADDFKGRFAFSLDTSASTAYLQINNLKNEDTATYFCARKNIYGYFDVWGAGTTVTVSS
VL: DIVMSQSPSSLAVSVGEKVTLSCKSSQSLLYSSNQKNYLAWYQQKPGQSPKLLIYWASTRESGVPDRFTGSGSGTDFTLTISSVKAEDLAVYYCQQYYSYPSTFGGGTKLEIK

Assays:
Assay in all cases: BLI
[1] = molecular target: T1, CEACAM1-his (human)
T1 chain: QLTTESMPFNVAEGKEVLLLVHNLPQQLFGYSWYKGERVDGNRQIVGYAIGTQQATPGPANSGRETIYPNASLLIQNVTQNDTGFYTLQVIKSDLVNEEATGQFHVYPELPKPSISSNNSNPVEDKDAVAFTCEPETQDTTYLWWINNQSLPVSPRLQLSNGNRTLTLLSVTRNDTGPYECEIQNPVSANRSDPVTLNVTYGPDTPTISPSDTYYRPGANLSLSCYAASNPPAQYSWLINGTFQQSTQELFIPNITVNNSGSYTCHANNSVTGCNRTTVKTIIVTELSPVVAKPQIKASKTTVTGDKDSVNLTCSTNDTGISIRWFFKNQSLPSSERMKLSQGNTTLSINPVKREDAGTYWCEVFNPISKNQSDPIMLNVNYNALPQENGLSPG

[2] = molecular target: T1, CEACAM1-his
[3] = molecular target: T1, CEACAM1-his

Binder	Kd [2]	Kd [3]	further results
B1			Kd [1]: 2.19 nM
B2			Kd [1]: 2.11 nM
B3	5.86 nM		
B4		1.53 nM	
B5	3.39 nM		
B6		1.46 nM	
B7	4.67 nM		
B8		2.28 nM	
B9	2.75 nM		
B10	5.41 nM		
B11		1.77 nM	
B12	3.65 nM		
B13	6.22 nM		
B14	1.13 nM		
B15		2.16 nM	
B16	4.97 nM		
B17	3.14 nM		
B18	4.87 nM		
B19		2.15 nM	
B20		1.81 nM	
B21		0.944 nM	
B22		2.18 nM	
B23		0.927 nM	
B24		2.23 nM	
B25		2 nM	
B26		1.13 nM	
B27			Kd [1]: 6.31 nM
B28			Kd [1]: 3.51 nM

— US20260297187 (published 2026)
